Target: T1, IL-1R1 Fc fusion protein
T1 construct: Used as immunogen and as ELISA coating antigen at 1 ug/ml; also called IL-1R1 immunogen
T1 chain: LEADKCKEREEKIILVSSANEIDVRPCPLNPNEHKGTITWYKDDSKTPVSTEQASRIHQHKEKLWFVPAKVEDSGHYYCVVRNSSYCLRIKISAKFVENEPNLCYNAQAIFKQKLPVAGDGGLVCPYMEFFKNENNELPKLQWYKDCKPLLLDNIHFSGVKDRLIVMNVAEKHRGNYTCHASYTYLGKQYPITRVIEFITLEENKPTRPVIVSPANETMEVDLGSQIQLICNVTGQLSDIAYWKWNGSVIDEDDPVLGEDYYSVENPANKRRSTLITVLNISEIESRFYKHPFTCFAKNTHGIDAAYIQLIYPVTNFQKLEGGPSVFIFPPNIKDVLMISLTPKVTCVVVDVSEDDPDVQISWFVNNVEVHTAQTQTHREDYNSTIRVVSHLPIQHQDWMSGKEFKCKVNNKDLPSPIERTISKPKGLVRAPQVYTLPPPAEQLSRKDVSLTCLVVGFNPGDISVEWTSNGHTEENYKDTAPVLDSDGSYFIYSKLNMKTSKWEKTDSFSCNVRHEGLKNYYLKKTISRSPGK
Experiment: ELISA of hybridoma supernatants on coated IL-1R1, with APO-A1 as negative control
Procedure: The day prior to screening, a Maxi Sorp plate was coated by adding 100 μl/well of 50 mM sodium carbonate coating buffer (pH 9.5) containing the IL-1R1 at 1 μg/ml. A separate coating solution was prepared by diluting APO-A1 in the same coating buffer at 1 μg/ml. […] This plate was incubated overnight at 4° C. in static conditions.
Eleven days after fusion, protoclones were screened by ELISA. 20× Maxi Sorp 96 well plates were coated as described herein using APO-A1 at 1 μg/ml as the negative control for specificity. The coating solution was removed and the plates were blocked as described herein. Samples were prepared by removing 160 μl of supernatant from each well of the ten fusion plates, limiting dilution plates, or 24-well plates and transferring to fresh 96 well culture plates containing 50 μl 1×PBS. After 2 hours of blocking, the blocking solution was removed, and the plates were washed 3× with PBS-T. The samples from each dilution plate were loaded onto the ELISA plates at 100 μl/well by adding 1 row from each dilution plate per 2 rows on the ELISA plates to account for specificity of the coating antigens. Two wells per ELISA were incubated with 100 μl 1×PBS as a negative control. These samples were incubated at 150 rpm for 2 hours at room temperature.

B1: Anti-IL-1R1 monoclonal antibody produced from clone F237 5D1-1A8-2A5 (antibody, V domains shown)
VH: QIQLVQSGPELRKPGETVRISCKASGYPFTTAGLQWVQKMSGKGLKWIGWMNTQSEVPKYAEEFKGRIAFSLETAASTAYLQINNLKTEDTATYFCAKSVYFNWRYFDVWGAGTTVTVSS
VL: DIVMTQSPATLSVTPGDRVSLSCRASQSISDYLSWYQQRSHESPRLIIKYASQSISGIPSRFSGSGSGSDFTLSINSVEPEDVGVYYCQHGHSFPLTFGSGTKLELKR
notes: Mouse hybridoma antibody tested as culture supernatant; also called first antibody (to IL-1R1)
B1: binds.

— US20220041739A1 (UNIVERSITY OF ULSTER, published 2022)
